Test results as given in article PMC3145545 (Molecular Biology of the Cell, 2011).

B1: Pac11 1-86 VQ51,52DA (site 1 mutant) (domain or fragment)
chain: MERLKQLEEKRRQLKELRERRKQASLFPGSETMGHHPTEVHAKATMVSVSDATDMEEGSKIQEPQSAYLRRKEVITYDKGIQTDQI
B2: Pac11 1-86 IQ81,82DA (site 2 mutant) (domain or fragment)
chain: MERLKQLEEKRRQLKELRERRKQASLFPGSETMGHHPTEVHAKATMVSVSVQTDMEEGSKIQEPQSAYLRRKEVITYDKGDATDQI
B3: Drosophila LC8 (dynein light chain) (natural protein)
chain: MSDRKAVIKNADMSEEMQQDAVDCATQALEKYNIEKDIAAYIKKEFDKKYNPTWHCIVGRNFGSYVTHETRHFIYFYLGQVAILLFKSG

How the values were obtained:
[1] = target: B3; assay: native gel or EMSA
[2] = target: B1; assay: AUC
[3] = target: B2; assay: AUC

binding result [1]	stoichiometry N [2] [LC8 per Pac11]	stoichiometry N [3] [LC8 per Pac11]	Binder
binds			B1
binds			B2
	1	1	B3
